These results are taken from paper PMC4445638 (2015).

B1: Notch1 411-530 (protein)
chain: QDVDECALGANPCEHAGKCLNTLGSFECQCLQGYTGPRCEIDVNECISNPCQNDATCLDQIGEFQCICMPGYEGVYCEINTDECASSPCLHNGRCVDKINEFLCQCPKGFSGHLCQYDVD

This experiment concerns the target T1, DLL4 N-EGF2 (Rattus norvegicus, UniProt D3ZHH1).
T1 chain: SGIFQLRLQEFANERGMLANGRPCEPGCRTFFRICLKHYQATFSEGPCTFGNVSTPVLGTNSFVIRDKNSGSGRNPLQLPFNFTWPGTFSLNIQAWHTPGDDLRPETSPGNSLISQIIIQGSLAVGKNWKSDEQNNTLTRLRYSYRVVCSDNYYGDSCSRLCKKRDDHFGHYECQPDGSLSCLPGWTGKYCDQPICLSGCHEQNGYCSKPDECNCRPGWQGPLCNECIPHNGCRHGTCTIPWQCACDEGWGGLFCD
Kind of experiment: SPR.
As for CLTLL [Notch1 EGF10-14], binding was put at a Kd of 8.6 µM.

For the molecule MPRLLAPLLCLTLL [Notch1 EGF1-14], the affinity, expressed as Kd, was 12.7 µM. Molecule B1 displayed a Kd of 7.5 µM.
